# Results taken from patent publication US20240327535A1 (EISAI R AND D MANAGEMENT, published 2024).
# Positions count from the first letter of the chain named.
# T1: human BCMA on NCI-H929, OPM2 and Raji cells (human, UniProt Q02223 1-184)
# T1 construct: endogenous BCMA of human cell lines; also called TNFRSF17; CD269
# T1 chain: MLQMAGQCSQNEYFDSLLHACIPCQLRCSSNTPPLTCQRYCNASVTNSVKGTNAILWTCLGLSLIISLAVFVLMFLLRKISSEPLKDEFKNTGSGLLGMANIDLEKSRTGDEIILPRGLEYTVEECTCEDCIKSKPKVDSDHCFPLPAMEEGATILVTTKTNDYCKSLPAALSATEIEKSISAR
# T2: extracellular domain of human BCMA (human, UniProt Q02223 1-54)
# T2 construct: amine-linked to Octet AR2G tips; also called hsBCMA; BCMA (human)
# T2 sequence: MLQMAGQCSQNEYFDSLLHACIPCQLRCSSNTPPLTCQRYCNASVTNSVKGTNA
# B1: AB212 (antibody, human IgG1, kappa, V domains shown)
# VH: QVQLVQSGAEVKKPGSSVKVSCKASGGTFSNYWIHWVRQAPGQGLEWMGGTYRSHSDTNYNQKFKSRVTITADKSTSTAYMELSSLRSEDTAVYYCARGAIYHGYDVIENWGQGTLVTVSS
# VL: DIQMTQSPSSLSASVGDRVTITCRASQSISSYLNWYQQKPGKAPKLLIYATSNLQIGVPSRFSGSGSGTDFTLTISSLQPEDFATYYCQQFRRLPWTFGQGTKLEIKR
# notes: IgG1 kappa
# B2: AB200-ADL1-D12-05 (antibody, human IgG1, kappa, V domains shown)
# VH: B1 VH with I34M, G50A, S54G, N59Y, S66G, H103D, I108L, E109D
# VL: B1 VL with R24S, S28D, S31N, A50Y, Q55H, I56S, F91Y, R93K
# modifications: ADL1-D12 linker-payload on cysteine residues of the antibody, DAR 4.24
# notes: antibody-drug conjugate
# B3: AB200 (antibody, human IgG1, kappa, V domains shown)
# VH: B1 VH with I34M, G50A, S54G, N59Y, S66G, H103D, I108L, E109D
# VL: B1 VL with R24S, S28D, S31N, A50Y, Q55H, I56S, F91Y, R93K
# notes: IgG1 kappa
# B4: AB214-ADL1-D2-02 (antibody, human IgG1, kappa, V domains shown)
# VH: B1 VH with G50A, H55Q, N59Y, F64Y, I101V, E109D
# VL: B1 VL with F91Y, L94I
# modifications: ADL1-D2 linker-payload on cysteine residues of the antibody, DAR 4.12
# B5: AB200-ADL1-D2-02 (antibody, human IgG1, kappa, V domains shown)
# VH: B1 VH with I34M, G50A, S54G, N59Y, S66G, H103D, I108L, E109D
# VL: B1 VL with R24S, S28D, S31N, A50Y, Q55H, I56S, F91Y, R93K
# modifications: ADL1-D2 linker-payload on cysteine residues of the antibody, DAR 3.92
# notes: antibody-drug conjugate; also called AB200 ADC incorporating the ADL1-D2 linker-payload
# B6: AB216-ADL1-D2-02 (antibody, human IgG1, kappa, V domains shown)
# VH: B1 VH with G50A, S54I, H55Q, N59Y, F64Y, I101V, E109D
# VL: B1 VL with L33I, F91Y, T97S
# modifications: ADL1-D2 linker-payload on cysteine residues of the antibody, DAR 3.8
# B7: AB200-(2Vk44)_R2-VH-v28 (Fab, V domains shown)
# VH: B1 VH with G50A, D57T, N59Y, F64Y, Y105F, E109D
# VL: B1 VL with L33I, F91Y, T97S
# B8: AB213-ADL1-D2-02 (antibody, human IgG1, kappa, V domains shown)
# VH: B1 VH with S30T, D57T, N59Y, I101V, E109D
# VL: B1 VL
# modifications: ADL1-D2 linker-payload on cysteine residues of the antibody, DAR 4.18
# B9: AB200-(2Vk44)_R2-VH-v14 (Fab, V domains shown)
# VH: B1 VH with T28S, G50A, D57T, N59Y, Q62E, I101V, E109D
# VL: B1 VL with L33I, F91Y, T97S
# B10: AB200-(2Vk44)_R2-VH-v54 (Fab, V domains shown)
# VH: B1 VH with T28S, G50A, S54I, Q62E
# VL: B1 VL with L33I, F91Y, T97S
# B11: AB200-(2Vk44)_R2-VH-v24 (Fab, V domains shown)
# VH: B1 VH with N59Y, Q62E, Y102F, E109D
# VL: B1 VL with L33I, F91Y, T97S
# B12: AB200-(2Vk44)_R2-VH-v64 (Fab, V domains shown)
# VH: B1 VH with G50A, S54I, D57T, N59Y, N61A, Y105F, E109D
# VL: B1 VL with L33I, F91Y, T97S
# B13: AB200-(2Vk44)_R2-VH-v44 (Fab, V domains shown)
# VH: B1 VH with S30T, G50A, S54I, N61A
# VL: B1 VL with L33I, F91Y, T97S
# B14: AB215-ADL1-D2-02 (antibody, human IgG1, kappa, V domains shown)
# VH: B1 VH with S30T, D57T, N59Y, I101V, E109D
# VL: B1 VL with F91Y, L94I
# modifications: ADL1-D2 linker-payload on cysteine residues of the antibody, DAR 3.96
# B15: AB218-ADL1-D2-02 (antibody, human IgG1, kappa, V domains shown)
# VH: B1 VH with G50A, H55Q, D57T, N59Y, I101V, E109D
# VL: B1 VL
# modifications: ADL1-D2 linker-payload on cysteine residues of the antibody, DAR 3.77
# B16: AB200-(2Vk44)_R2-VH-v1 (Fab, V domains shown)
# VH: B1 VH with S30T, N59Y, F64Y
# VL: B1 VL with L33I, F91Y, T97S
# B17: AB200-(2Vk44)_R2-VH-v41 (Fab, V domains shown)
# VH: B1 VH with S30T, S54I, N59Y, Q62E, Y105F, E109D
# VL: B1 VL with L33I, F91Y, T97S
# B18: AB200-(2Vk44)_R2-VH-v22 (Fab, V domains shown)
# VH: B1 VH with H55Q, N59Y, I101V, E109D
# VL: B1 VL with L33I, F91Y, T97S
# B19: AB200-(2Vk44)_R2-VH-v68 (Fab, V domains shown)
# VH: B1 VH with G50A, S54I, N61A, K74E, Y105F, E109D
# VL: B1 VL with L33I, F91Y, T97S
# B20: AB200-(2Vk44)_R2-VH-v70 (Fab, V domains shown)
# VH: B1 VH with G50A, S54I, F64Y, I101V, E109D
# VL: B1 VL with L33I, F91Y, T97S
# B21: AB212-ADL1-D2-02 (antibody, human IgG1, kappa, V domains shown)
# VH: B1 VH
# VL: B1 VL
# modifications: ADL1-D2 linker-payload on cysteine residues of the antibody, DAR 5.17
# B22: AB200-(2Vk44)_R2-VH-v60 (Fab, V domains shown)
# VH: B1 VH with S54I, H55Q, N59Y
# VL: B1 VL with L33I, F91Y, T97S
# B23: AB200-(2Vk44)_R2-VH-v72 (Fab, V domains shown)
# VH: B1 VH with G50A, S54I, H55Q, N59Y, N61A, I101V, E109D
# VL: B1 VL with L33I, F91Y, T97S
# B24: AB218 (antibody, human IgG1, kappa, V domains shown)
# VH: B1 VH with G50A, H55Q, D57T, N59Y, I101V, E109D
# VL: B1 VL
# notes: IgG1 kappa
# B25: AB200-(2Vk44)_R2-VH-v53 (Fab, V domains shown)
# VH: B1 VH with T28S, G50A, S54I, F64Y, Y102F, E109D
# VL: B1 VL with L33I, F91Y, T97S
# B26: AB200-(2Vk44)_R2-VH-v61 (Fab, V domains shown)
# VH: B1 VH with S54I, N59Y, F64Y
# VL: B1 VL with L33I, F91Y, T97S
# B27: AB200-(2Vk44)_R2-VH-v7 (Fab, V domains shown)
# VH: B1 VH with F29Y, G50A, D57T, N59Y, N61A, Y105F, E109D
# VL: B1 VL with L33I, F91Y, T97S
# B28: AB217-ADL1-D2-02 (antibody, human IgG1, kappa, V domains shown)
# VH: B1 VH with S30T, G50A, N59Y, N61A, F64Y, I101V, E109D
# VL: B1 VL with L33I, I56S, F91Y, L94I
# modifications: ADL1-D2 linker-payload on cysteine residues of the antibody, DAR 3.7
# B29: AB216 (antibody, human IgG1, kappa, V domains shown)
# VH: B1 VH with G50A, S54I, H55Q, N59Y, F64Y, I101V, E109D
# VL: B1 VL with L33I, F91Y, T97S
# notes: IgG1 kappa
# B30: AB200-(2Vk44)_R2-VH-v58 (Fab, V domains shown)
# VH: B1 VH with S54I, Y105F, E109D
# VL: B1 VL with L33I, F91Y, T97S
# B31: AB200-(2Vk44)_R2-VH-v35 (Fab, V domains shown)
# VH: B1 VH with G50A, N59Y, N61A, F64Y
# VL: B1 VL with L33I, F91Y, T97S
# Columns and labels:
# [1] = molecular target: T1, human BCMA on NCI-H929, OPM2 and Raji …; assay: flow cytometry, OPM2 cells
# [2] = molecular target: T1, human BCMA on NCI-H929, OPM2 and Raji …; assay: flow cytometry, Raji cells
# [3] = molecular target: T1, human BCMA on NCI-H929, OPM2 and Raji …; assay: flow cytometry, NCI-H929 cells
# [4] = molecular target: T1, human BCMA on NCI-H929, OPM2 and Raji …; assay: flow cytometry, NCI-H929 cells
# [5] = molecular target: T1, human BCMA on NCI-H929, OPM2 and Raji …; assay: flow cytometry on NCI-H929 cells (BCMA high), fluorescent anti-human IgG1 secondary antibody, MFI against test article concentration
# [6] = molecular target: T1, human BCMA on NCI-H929, OPM2 and Raji …; assay: cell-based or functional assay
# [7] = molecular target: T2, extracellular domain of human BCMA; assay: Octet BLI; Fab 200 nM
# [8] = molecular target: T3, extracellular domain of rhesus monkey BCMA (rhesus monkey, UniProt F7FFA0 1-53); assay: Octet BLI; Fab 200 nM
# T3 construct: extracellular domain; also called RhBCMA
# T3 sequence (F7FFA0 entry or part of it): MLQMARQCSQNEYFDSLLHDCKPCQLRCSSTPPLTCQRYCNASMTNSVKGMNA
binder,measurement,setting,value
B1,Kd,[1],4.33 nM
same,Kd,[2],16 nM
same,Kd,[3],9.68 nM
B2,Kd,[4],9.7 nM
same,EC50 (read off the curve),[5],~9 nM
B3,Kd,[1],10 nM
same,Kd,[2],14 nM
same,Kd,[3],50.5 nM
B4,"GI50 (nM) OPM2.1, cell viability",[6],1.54 nM
same,"LD50 (nM) OPM2.1, cell viability",[6],25.1 nM
same,Kd,[4],1.02 nM
same,EC50 (read off the curve),[5],~1 nM
B5,Kd,[4],9.66 nM
same,EC50 (read off the curve),[5],~9 nM
B6,"GI50 (nM) OPM2.1, cell viability",[6],1.56 nM
same,"LD50 (nM) OPM2.1, cell viability",[6],14 nM
same,Kd,[4],0.836 nM
same,EC50 (read off the curve),[5],~0.7 nM
B7,Kd,[7],10.9 nM
same,Kd,[8],20.9 nM
B8,Kd,[4],0.5 nM
same,EC50 (read off the curve),[5],~0.6 nM
B9,Kd,[7],7.55 nM
same,Kd,[8],16.9 nM
B10,Kd,[7],68.8 nM
same,Kd,[8],151 nM
B11,Kd,[7],6.44 nM
same,Kd,[8],20.8 nM
B12,Kd,[7],22.1 nM
same,Kd,[8],36.5 nM
B13,Kd,[7],86.4 nM
same,Kd,[8],290 nM
B14,"GI50 (nM) OPM2.1, cell viability",[6],4.04 nM
same,"LD50 (nM) OPM2.1, cell viability",[6],73.7 nM
same,Kd,[4],1.3 nM
same,EC50 (read off the curve),[5],~1 nM
B15,"GI50 (nM) OPM2.1, cell viability",[6],0.985 nM
same,"LD50 (nM) OPM2.1, cell viability",[6],19.8 nM
same,Kd,[4],0.333 nM
B16,Kd,[7],11.8 nM
same,Kd,[8],40 nM
B17,Kd,[7],3.73 nM
same,Kd,[8],12.6 nM
B18,Kd,[7],2.31 nM
same,Kd,[8],11.1 nM
B19,Kd,[7],60.3 nM
same,Kd,[8],110 nM
B20,Kd,[7],12.4 nM
same,Kd,[8],35.8 nM
B21,Kd,[4],1.3 nM
B22,Kd,[7],11.1 nM
same,Kd,[8],38.6 nM
B23,Kd,[7],2.16 nM
same,Kd,[8],12.4 nM
B24,Kd,[1],0.687 nM
same,Kd,[2],2.15 nM
same,Kd,[3],0.987 nM
B25,Kd,[7],52.5 nM
same,Kd,[8],103 nM
B26,Kd,[7],19.2 nM
same,Kd,[8],59.6 nM
B27,Kd,[7],40.6 nM
same,Kd,[8],71.7 nM
B28,"GI50 (nM) OPM2.1, cell viability",[6],2.17 nM
same,"LD50 (nM) OPM2.1, cell viability",[6],16.3 nM
same,Kd,[4],0.366 nM
same,EC50 (read off the curve),[5],~0.4 nM
B29,Kd,[1],2.27 nM
same,Kd,[2],6.43 nM
same,Kd,[3],3.05 nM
B30,Kd,[7],27.2 nM
same,Kd,[8],52.6 nM
B31,Kd,[7],16.2 nM
same,Kd,[8],52.8 nM
